One block for each molecule: values may come before it.
How the values were obtained:
[1] = molecular target: human Tipin, N-terminal 10xHis tag, co-expressed with Timeless (human) (UniProt Q9BVW5); test: native MS + SEC-MALS; purified Timeless-Tipin complex; nanoESI-MS in 0.20 M ammonium acetate pH 7.0, 5-10 μM; SEC-MALLS
[2] = molecular target: the molecule itself; test: SEC-MALS; Superdex 200 Increase 10/300, 25°C, 1-2 mg/ml (100 μl injection), 25 mM Hepes 7.2, 150 mM KCl, 50 mM Arginine, 50 mM Glutamate

Chain of human Tipin, N-terminal 10xHis tag, co-expressed with Timeless (human) (Q9BVW5 whole entry): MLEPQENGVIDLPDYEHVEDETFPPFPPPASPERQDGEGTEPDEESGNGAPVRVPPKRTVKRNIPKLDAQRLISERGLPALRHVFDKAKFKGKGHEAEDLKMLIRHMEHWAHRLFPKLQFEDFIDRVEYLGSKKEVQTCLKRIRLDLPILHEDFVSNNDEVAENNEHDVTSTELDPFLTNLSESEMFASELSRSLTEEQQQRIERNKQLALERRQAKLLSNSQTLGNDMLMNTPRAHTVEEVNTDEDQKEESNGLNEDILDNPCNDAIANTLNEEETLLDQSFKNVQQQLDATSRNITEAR

- stoichiometry N (Timeless:Tipin) [1]: 1
Molecule: human Timeless, full-length, N-terminal twin-strep tag, co-expressed with Tipin (from UniProt Q9UNS1 1-1208) (natural protein)

B1: TimN(Δ239-330): Timeless 1-463 with residues 239-330 replaced by the linker GSTGST (domain or fragment, human)
chain: MDLHMMNCELLATCSALGYLEGDTYHKEPDCLESVKDLIRYLRHEDETRDVRQQLGAAQILQSDLLPILTQHHQDKPLFDAVIRLMVNLTQPALLCFGNLPKEPSFRHHFLQVLTYLQAYKEAFASEKAFGVLSETLYELLQLGWEERQEEDNLLIERILLLVRNILHVPADLDQEKKIDDDASAHDQLLWAIHLSGLDDLLLFLASSSAEEQWSLHVLEIVSLMFRDQNPEQLAGVGGSTGSTQRRSALNVRLFLRDFCSEFLENCYNRLMGSVKDHLLREKAQQHDETYYMWALAFFMAFNRAASFRPGLVSETLSVRTFHFIEQNLTNYYEMMLTDRKEAASWARRMHLALKAYQELLATVNEMDISPDEAVRE
notes: human Timeless, residues 1-238; 6-residue linker in place of residues 239-330; human Timeless, residues 331-463; Dimer in solution and in the crystal; the authors think the dimer is likely an artifact of construct design; also called Timeless(1-463_(Δ239-330)); source: E. coli Rosetta2(DE3), purified (Ni-NTA, HiTrap Q, SEC)
- stoichiometry N [2]: 2

From PMC5605233, “Crystal structure of the N-terminal domain of human Timeless and its interaction with Tipin” (Nucleic Acids Research, 2017)
